According to patent publication US20260174880:

Molecular target: cytosolically localized BRD4 (lacks NLS), O60885

B1: BTK-FLAG (Bruton's Tyrosine Kinase, FLAG-tagged, expressed in HEK293T cells and treated with BTK-BRD4 PHICS) (protein)
chain: MAAVILESIFLKRSQQKKKTSPLNFKKRLFLLTVHKLSYYEYDFERGRRGSKKGSIDVEKITCVETVVPEKNPPPERQIPRRGEESSEMEQISIIERFPYPFQVVYDEGPLYVFSPTEELRKRWIHQLKNVIRYNSDLVQKYHPCFWIDGQYLCCSQTAKNAMGCQILENRNGSLKPGSSHRKTKKPLPPTPEEDQILKKPLPPEPAAAPVSTSELKKVVALYDYMPMNANDLQLRKGDEYFILEESNLPWWRARDKNGQEGYIPSNYVTEAEDSIEMYEWYSKHMTRSQAEQLLKQEGKEGGFIVRDSSKAGKYTVSVFAKSTGDPQGVIRHYVVCSTPQSQYYLAEKHLFSTIPELINYHQHNSAGLISRLKYPVSQQNKNAPSTAGLGYGSWEIDPKDLTFLKELGTGQFGVVKYGKWRGQYDVAIKMIKEGSMSEDEFIEEAKVMMNLSHEKLVQLYGVCTKQRPIFIITEYMANGCLLNYLREMRHRFQTQQLLEMCKDVCEAMEYLESKQFLHRDLAARNCLVNDQGVVKVSDFGLSRYVLDDEYTSSVGSKFPVRWSPPEVLMYSKFSSKSDIWAFGVLMWEIYSLGKMPYERFTNSETAEHIAQGLRLYRPHLASEKVYTIMYSCWHEKADERPTFKILLSNILDVMDEES
In the case of B1, the “BRD4 phosphorylation (pBRD4 immunoblot) [panel B]” value is reported as “clear pBRD4 band in lane PHICS; no visible band in lanes DMSO and iPHICS; total BRD4 alike in all lanes”, the “BRD4 phosphorylation (pBRD4 immunoblot) [panel C]” value is reported as “strongest pBRD4 band in lane PHICS; weak bands in lanes DMSO and iPHICS; total BRD4 alike in all lanes” and the “BRD4 phosphorylation (pBRD4 immunoblot) [panel F]” value is reported as “clear pBRD4 band in lane 5; barely visible signal in lanes DMSO and 6; total BRD4 alike in all lanes”. For the same protein, the “BRD4 phosphorylation (pBRD4 immunoblot) [panel G]” value was “clear pBRD4 band in lane 7; no visible band in lanes DMSO and 8; total BRD4 alike in all lanes”.
